53 sequences from the supplement of paper PMC12764529 can be followed below.

± gives the half width of the 95% confidence interval. Some results are limits rather than exact numbers.

The nature of the series: folding stability dG unfold (combined trypsin and chymotrypsin); higher = more stable. On the procedure: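 Folding stability of de novo designed mini-proteins (<80 aa, no Cys; designed by TrROS, TrMRF, ProteinMPNN and the joint model) was measured by cDNA display proteolysis with trypsin and chymotrypsin. Each protease was used at 11 concentrations in a threefold dilution series plus a no-protease condition. K50 was inferred by Bayesian fitting of sequencing counts, and dG unfold was derived against a sequence-predicted unfolded-state K50 (Tsuboyama et al. method). Sequences shown include variable-length N-terminal GS-type padding (SAGGSAGG...) inside a display construct carrying a PA tag. Rows were kept only if the AF2 dimer inter-PAE was >15, to exclude likely homo-oligomers.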
Turning to “GEVLVAKIELKVKKKLPEKPEEVEEKLELEFVAPIDNPEALEKAEEIAKKLAEEIGATEVKIKVEPYILPES [r1_346_TrMRF]”, the “folding stability dG unfold” value is less than -1 kcal/mol.

As for “GMILFKVKLTDPKGKKEIAEVDIPIPVPEEVLPAMPEELKEKLREEAEKAAEEIREKLGNVLVEPEFTLLES [r1_115_JUSTAS]”, the “folding stability dG unfold” value was less than -1 kcal/mol.

For “MKVLKTETKPIPGSGKIEVRVEYEVDGFFDPATGKPYSPDYLVTEKKTITVPPDSDDEIVTSSITFHPNLKS [r1_147_JUSTAS]”, the “folding stability dG unfold” value was less than -1 kcal/mol.

For the sequence “PEPGAVETRETDYIDPNNNNKYKATITTTRDPNSDLATVNTTIKLPNGETLNYSATINPNPGTVTSTTSISS [r1_144_JUSTAS]”, the “folding stability dG unfold” value was -0.628 ± 0.48 kcal/mol.

On to “SAALGPEKAEELAEALARELAEKAGVEKVEAKVEPLPDERWVAEIYFPPVGKKARVVFEKDKPRLVEVGSAG [r14_925_TrMRF]”, for which the “folding stability dG unfold” value was less than -1 kcal/mol.

On to “SAGDALKEAAKNGKPAELPIRFHFYQIKEPERDKDGGPRYKMKPIHTVEFPIRVDKVDPGNGDIKIDMPSAG [r5_5_TrROS]”, for which the “folding stability dG unfold” value is less than -1 kcal/mol.

As for “SAGDRKVIHINGFEPEQFRKIIREAKDKGPPGDRIWIPSPEYVDELKELDPNLPVEVHNMDNGEWQEIESAG [r5_391_TrROS]”, the “folding stability dG unfold” value is less than -1 kcal/mol.

“SAGFDFPEDFTPIARDGVNSLWQGDGPVLLALRGPEGGSAVLPFKPGNPEEIFPLIEALAAGGVVDPSFSAG [r14_12_TrMRF]”: the “folding stability dG unfold” value was less than -1 kcal/mol.

With “SAGGAMTPDGTSVTIPYEAKTPTGEASEEEARERIEEELAARPDVALTRVEFEREGDRIKATVYTRVPRSAG [r5_688_JUSTAS]”, the “folding stability dG unfold” value is less than -1 kcal/mol.

For the sequence “SAGGDIEVEPTDNMPQVEIRDPEGKERKIVMPPNPNGQYNIQVHNPDDGKKKTFPVRSVDDALEWLKSAGGS [r8_230_TrROS]”, the “folding stability dG unfold” value is less than -1 kcal/mol.

Take “SAGGDKIQEKLQKEGGFRPTNTEVNGGKPKIHIHWPNPERRKKLKEKLKKDPGIEEVQIQPMDPEDMSAGGS [r16_671_TrROS]”: the “folding stability dG unfold” value is less than -1 kcal/mol.

Consider “SAGGDNRQEREFHIPDPDGEDINITMEYNPSNGRTRVKVQPPEDGKPIKEIPADEMPPEAQDILKKISAGGS [r8_32_TrROS]”, for which the “folding stability dG unfold” value was less than -1 kcal/mol.

On to “SAGGDWLDNFPPGWKIKLERPNGKPKTYTIPPNSSPDDLKKLKLPNGYKLKIDEVTPNGQMTFRLPPSAGGS [r16_103_TrROS]”, for which the “folding stability dG unfold” value is less than -1 kcal/mol.

As for “SAGGDYVSITIDDPNPGMPPEELAQEIIRELNPDGFPIKPKKIEPERHDGRPKVTITFRVDDPEAIKKSAGG [r13_979_TrROS]”, the “folding stability dG unfold” value is less than -1 kcal/mol.

With “SAGGEDIIKELLDQLPPGDKNAVLEFDPPDGKLEPKEPSPGGYMFEPKNPENGEKWTFVIRDDKIEPVSAGG [r13_803_TrROS]”, the “folding stability dG unfold” value is less than -1 kcal/mol.

As to “SAGGEISIMFKSPEGVKEIAEELEENGLEVDVSPVPGYWMVRIQPKPKPPPTPEAAEKAQRDPDQANKSAGG [r13_8_TrROS]”, the “folding stability dG unfold” value was less than -1 kcal/mol.

Take “SAGGFNLKIMPMRMPRRKYDPEDGEPKKPEPVKMWMIQVEAKPGQTVSEIADELQKEFPGDNIMVMPSAGGS [r8_30_TrROS]”: the “folding stability dG unfold” value is less than -1 kcal/mol.

In the case of “SAGGFPISIERWDPDGKKRRREIPMDDPDEIKEFLDDLPPDRPVRIHMPNPQHFNALKNAGFDEVEMMSAGG [r13_476_TrROS]”, the “folding stability dG unfold” value is less than -1 kcal/mol.

For “SAGGFYRLKIYNPDNGQPIEFPINWDEVEEAIKNGDLDELAEHYPGAPIDKIEVEPVKPVPPVPPDEKSAGG [r13_629_TrROS]”, the “folding stability dG unfold” value was less than -1 kcal/mol.

With “SAGGGMEIVTTKESTLPEDVKVKESTTTFPDGTSIKTVTLTSPKPGDTKTITIPVKPGGPGLSTTVTESAGG [r13_323_JUSTAS]”, the “folding stability dG unfold” value is less than -1 kcal/mol.

In the case of “SAGGGMRPVPVSEIIAKLKEEGYTVSKVSVYRPGSGEKLGTYDPNTPVVIPADEPDAVIEPVVEPKGSAGGS [r8_243_JUSTAS]”, the “folding stability dG unfold” value is less than -1 kcal/mol.

Take “SAGGGPPLRVSTESEVYEDPETGVTYVRRRIHVEGGLVVEEELKETVNPEDPGAEVTLVSRRESPALSAGGS [r8_241_JUSTAS]”: the “folding stability dG unfold” value is less than -1 kcal/mol.

Take “SAGGIKELADEGAEIKDVTWPVRFPDGNPMRITEIKPTDGGLDIRFEPPNDGREQEHPIPPDNIEPLPSAGG [r13_340_TrROS]”: the “folding stability dG unfold” value is less than -1 kcal/mol.

With “SAGGIKPGQQWRIRSPNGPIPIRVRGGQIKIRNNDNGKKRTYPVPGDTIEEIVDDLRDHPGMEIEPLSAGGS [r16_583_TrROS]”, the “folding stability dG unfold” value was less than -1 kcal/mol.

On to “SAGGIRIRPGQKIEDIEFEVEKNPDGEPPIKVKIRWPDKGKPHTYTMTPGQDVGNFADKNGWPIEVVSAGGS [r16_676_TrROS]”, for which the “folding stability dG unfold” value was less than -1 kcal/mol.

On to “SAGGITLKEIREALKKGHMMRIEGPDGGKRRIPIDDLKDMPGIKPGMPLEDLKVRKIEWVPPDDGQPMSAGG [r13_587_TrROS]”, for which the “folding stability dG unfold” value is less than -1 kcal/mol.

On to “SAGGIWIDNPDQILDQIKENPNQPRTIQVPMDPDNGQIPPDIKKALKEPGMPVQHDPNGYMTFKIPPSAGGS [r16_335_TrROS]”, for which the “folding stability dG unfold” value was less than -1 kcal/mol.

Take “SAGGKELVEKLLAEGGVKPVKIETKEGKPKIEVLAPKPELGKKLVEKLKKDPRIEEVNIKPYKPEELSAGGS [r16_671_TrMRF]”: the “folding stability dG unfold” value is less than -1 kcal/mol.

For the sequence “SAGGKITIEMPEDGMYRITIRNPNKGEPVSEIPIPANQIQELAKENGEPMPIEDIVRKLGYPIEIERYSAGG [r13_836_TrROS]”, the “folding stability dG unfold” value is less than -1 kcal/mol.

With “SAGGMEEKVINIPLSNGEEATITITIENEPGKNKAIVPINSKSVPAEELAKKLKKELPESITDLTVVKSAGG [r13_404_JUSTAS]”, the “folding stability dG unfold” value was less than -1 kcal/mol.

Take “SAGGMIIDDPDALLDAIKENPNTPLVFLVPTDPATGTVDPAVIDAVVEPGFPVERDPDGYVRFIFPKSAGGS [r16_335_TrMRF]”: the “folding stability dG unfold” value was less than -1 kcal/mol.

As for “SAGGMKAKIIPFTVAGGAYEPETGELKKPVPVKVTLIEVEPEPDVKVEEIAEEFEKAFPGKGVIVAPSAGGS [r8_30_TrMRF]”, the “folding stability dG unfold” value is less than -1 kcal/mol.

Consider “SAGGMPLEKIKEIKLVKEKEDGEKEILIVVEDPELVKEGNVEEVKKLAEALAEELKKKGIKVKIEVKPSAGG [r13_243_TrROS_Hall]”, for which the “folding stability dG unfold” value was less than -1 kcal/mol.

Take “SAGGMPPGQKKTITLEMNEPGYFRIHNPNGGQEREFPINPDQSPSEFLDWAEDFAEDYGYPVEIEWHSAGGS [r16_446_TrROS]”: the “folding stability dG unfold” value was less than -1 kcal/mol.

On to “SAGGMSPNQKVTIEIDNWHPGPGGNYFNVRIRNPGNGKPREINGPGDNPEDMKKEIEELVKAGPIEIYSAGG [r13_286_TrROS]”, for which the “folding stability dG unfold” value was less than -1 kcal/mol.

With “SAGGMTKTYDPNGRTITELPDGTVVETTVDPSKPLTKVTTTTVEGDNVVSSTEILQEVSLPETSPYLSAGGS [r8_142_JUSTAS]”, the “folding stability dG unfold” value is less than -1 kcal/mol.

For “SAGGMTLESEVTTLPDGTVVTKTTTVYPDGTVTTKTTTTSVPAGPPTVVRTLPDGSRVRDPTGEWTALSAGG [r13_151_JUSTAS]”, the “folding stability dG unfold” value is less than -1 kcal/mol.

“SAGGMVVITTDDPDDLERLAEAVEELKRALAEAGATEPGVKVDVVIEKRPTPDGTLRYVAPVFVGLPSAGGS [r16_591_TrMRF]”: the “folding stability dG unfold” value was less than -1 kcal/mol.

For the sequence “SAGGNLKIEMGDNPHEIPVDPNQVDTPEEAIEEVADQIRNRFPQFGPFRVRVETEGGKEIAMINIKPKSAGG [r13_257_TrROS]”, the “folding stability dG unfold” value is less than -1 kcal/mol.

For “SAGGPGPPPLEPVVVPVDDGVAVFTRSPDGSLHVEIGPRSGPVVASATAPLPEDSELTVDAVVLPEELSAGG [r13_584_TrMRF]”, the “folding stability dG unfold” value was less than -1 kcal/mol.

As for “SAGGPKIDVEKEKSPERGRRKIEIRWPGSGQEMDIFLPDDDPDKIAKALQNAPFGSFHEAIREALRDSAGGS [r8_484_TrROS]”, the “folding stability dG unfold” value was less than -1 kcal/mol.

As for “SAGGPMREYTIKLPGKKITINEMPNPNGNEMTQVSVRDGGEPKRPVNMPNDNADEFAKKPGIKPDDIVSAGG [r13_108_TrROS]”, the “folding stability dG unfold” value is less than -1 kcal/mol.

As to “SAGGPVSEEIVTEKKTLEEDPKNGNTYSEIIMKTPNETIKVKGVKHPSGSTTYTVYTPNSKIATVNVSSAGG [r13_146_JUSTAS]”, the “folding stability dG unfold” value was less than -1 kcal/mol.

In the case of “SAGGSAEPKPGVKAILFNENGEPIKEVSENEEILLPNGTPTKVYRLPDNSSIATHPDGYVALFVEGSAGGSA [r15_845_TrMRF]”, the “folding stability dG unfold” value is less than -1 kcal/mol.

As to “SAGGSAGEKTLKIVIEGKDKEKVVKEAKPLLEKLFGAKEIKVKVEPLPDGGYKVPIEITVPPGAAKSAGGSA [r15_173_TrMRF]”, the “folding stability dG unfold” value is less than -1 kcal/mol.

“SAGGSAGGAVRVDDSEIGPDRAAPLPGNRSLEVRPDSVTVTTTDPSTNTPTTTTLPYSEVERLLSAGGSAGG [r6_942_JUSTAS]”: the “folding stability dG unfold” value was less than -1 kcal/mol.

Consider “SAGGSAGGDYKLEPDDIEPMPDGWYQVEIEIEQRDPDGEPETRDIPVWMPPGQTAKDMAKWLIKSAGGSAGG [r6_329_TrROS]”, for which the “folding stability dG unfold” value is less than -1 kcal/mol.

Regarding “SAGGSAGGGMMKTITITESVVLEVRPVTSENGRVYPEVLSEVLKTTTVPFPPGNEEEIEKAIKESAGGSAGG [r6_738_JUSTAS]”, the “folding stability dG unfold” value was less than -1 kcal/mol.

Consider “SAGGSAGGGNTPRPRPRSVVTKLNVSPDTVPPEELKAKHPDIEVSYSPNSLTARVPVNGELVESSAGGSAGG [r6_739_JUSTAS]”, for which the “folding stability dG unfold” value is less than -1 kcal/mol.

Turning to “SAGGSAGGIKIDPNIKEITWHQNPNGMFYHTIKVDEGKKVAPVRFPPDQPPEQMWDNAKEALKESAGGSAGG [r6_436_TrROS]”, the “folding stability dG unfold” value is less than -1 kcal/mol.

Regarding “SAGGSAGGITVTIDMNEGYYRIKVEYPGNGKKREIPISGPPDDLASELEDEFGYPVKDVEIEKWSAGGSAGG [r6_763_TrROS]”, the “folding stability dG unfold” value is less than -1 kcal/mol.

Consider “SAGGSAGGKPIVFKGKHDGKEMIFPIELNPENGQIKITPMNGKELRIPPNKPPKIVEVDPNDFESAGGSAGG [r6_174_TrROS]”, for which the “folding stability dG unfold” value is less than -1 kcal/mol.

Take “SAGGSAGGMDEKLYITTAEVTVKEDGAPVPSTMTFKSKEEIEKYVKETFPPENVELKITTYPELSAGGSAGG [r6_114_JUSTAS]”: the “folding stability dG unfold” value is less than -1 kcal/mol.
